Literature values in PMC9897510.
Each block holds one substance with its values, some of them ahead of it.

Columns and labels:
[1] = target: FOXM1c (Homo sapiens) (UniProt Q08050)
[2] = target: FOXM1b (Homo sapiens) (UniProt Q08050)
[3] = target: atrial natriuretic factor receptor (UniProt P16066)
[4] = target: FhuA (Escherichia coli) (UniProt P06971)
Chain of UniProt P06971 (P06971 34-747): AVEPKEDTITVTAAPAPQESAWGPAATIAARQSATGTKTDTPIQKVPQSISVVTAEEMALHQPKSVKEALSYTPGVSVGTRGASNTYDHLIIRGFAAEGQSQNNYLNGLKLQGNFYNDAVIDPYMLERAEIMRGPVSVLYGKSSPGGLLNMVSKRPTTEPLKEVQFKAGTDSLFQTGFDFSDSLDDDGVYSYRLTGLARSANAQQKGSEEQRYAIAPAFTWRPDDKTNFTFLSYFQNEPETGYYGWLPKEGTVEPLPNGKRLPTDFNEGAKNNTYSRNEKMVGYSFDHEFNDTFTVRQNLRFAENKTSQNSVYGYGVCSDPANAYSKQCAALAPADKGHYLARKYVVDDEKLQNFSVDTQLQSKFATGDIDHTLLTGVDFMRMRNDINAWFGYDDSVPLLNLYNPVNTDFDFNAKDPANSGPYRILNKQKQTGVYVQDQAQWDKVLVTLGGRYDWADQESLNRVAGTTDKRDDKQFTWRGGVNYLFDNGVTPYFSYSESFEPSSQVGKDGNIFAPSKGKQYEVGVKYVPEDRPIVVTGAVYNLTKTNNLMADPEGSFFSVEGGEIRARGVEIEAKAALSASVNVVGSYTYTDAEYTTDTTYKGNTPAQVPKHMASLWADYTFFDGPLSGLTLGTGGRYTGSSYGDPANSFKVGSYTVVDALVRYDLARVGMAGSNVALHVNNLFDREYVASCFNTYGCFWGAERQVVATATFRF

Chain of UniProt P16066 (P16066 33-1061): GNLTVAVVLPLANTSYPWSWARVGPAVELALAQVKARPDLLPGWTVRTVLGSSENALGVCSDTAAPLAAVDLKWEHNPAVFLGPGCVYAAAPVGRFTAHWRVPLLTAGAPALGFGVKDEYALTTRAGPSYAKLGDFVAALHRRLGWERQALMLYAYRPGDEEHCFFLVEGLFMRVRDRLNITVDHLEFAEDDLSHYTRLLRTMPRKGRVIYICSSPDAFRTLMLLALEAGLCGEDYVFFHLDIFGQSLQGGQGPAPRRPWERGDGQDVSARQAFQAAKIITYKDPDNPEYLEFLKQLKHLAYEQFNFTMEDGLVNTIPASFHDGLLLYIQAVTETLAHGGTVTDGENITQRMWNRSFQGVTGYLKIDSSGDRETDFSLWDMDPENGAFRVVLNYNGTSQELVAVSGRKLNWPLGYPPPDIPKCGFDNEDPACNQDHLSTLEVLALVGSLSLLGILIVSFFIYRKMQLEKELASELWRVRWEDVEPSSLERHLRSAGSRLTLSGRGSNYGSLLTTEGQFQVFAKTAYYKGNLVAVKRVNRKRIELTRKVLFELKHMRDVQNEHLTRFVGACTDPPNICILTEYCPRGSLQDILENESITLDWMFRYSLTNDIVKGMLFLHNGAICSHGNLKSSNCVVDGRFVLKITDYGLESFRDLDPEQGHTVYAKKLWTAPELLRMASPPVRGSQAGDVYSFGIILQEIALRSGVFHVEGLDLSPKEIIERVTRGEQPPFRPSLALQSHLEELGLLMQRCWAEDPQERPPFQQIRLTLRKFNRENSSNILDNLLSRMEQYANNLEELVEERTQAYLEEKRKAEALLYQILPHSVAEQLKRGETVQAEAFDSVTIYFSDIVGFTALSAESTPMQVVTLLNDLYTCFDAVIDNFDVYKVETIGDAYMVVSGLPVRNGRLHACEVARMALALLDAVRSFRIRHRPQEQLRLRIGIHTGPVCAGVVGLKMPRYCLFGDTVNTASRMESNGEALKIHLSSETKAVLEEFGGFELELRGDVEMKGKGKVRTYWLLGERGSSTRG

Substance: thiostrepton (from UniProt P0C8P8)
Ki [1]: 11 µM
Ki [2]: 31 µM

Kd [3]: 0.6 µM
Substance: anantin (from UniProt Q7M0J9)

Kd [4]: 1.2 µM
Substance: Microcin J25 (from UniProt Q9X2V7)
